This is an account of results in paper PMC6881245.

The target in assay [1] is Complement C1q (UniProt P02745).
For assay [2] the target is unchanged. Put plainly: flow cytometry on cholesterol crystals; C1q (50 μg/ml in PBS, 1 h RT) bound to cholesterol crystals (1.6 mg/ml), washed; vWF 10 μg/ml in PBS added for 1 h at RT, washed; vWF detected with polyclonal rabbit anti-vWF and anti-rabbit IgG-AF647; BD Accuri 6; n = 5.
Assay [3] shares this target. The source holds these as a separate data set.

UniProt P02745, sequence (P02745 23-245, chain 1 of 3): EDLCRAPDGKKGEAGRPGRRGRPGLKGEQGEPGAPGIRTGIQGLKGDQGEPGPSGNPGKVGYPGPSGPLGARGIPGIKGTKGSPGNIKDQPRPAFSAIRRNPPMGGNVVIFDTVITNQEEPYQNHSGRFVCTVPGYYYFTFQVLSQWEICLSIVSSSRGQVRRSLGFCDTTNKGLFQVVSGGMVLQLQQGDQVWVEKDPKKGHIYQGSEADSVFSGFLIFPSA
UniProt P02745, sequence (P02746 28-253, chain 2 of 3, further chain): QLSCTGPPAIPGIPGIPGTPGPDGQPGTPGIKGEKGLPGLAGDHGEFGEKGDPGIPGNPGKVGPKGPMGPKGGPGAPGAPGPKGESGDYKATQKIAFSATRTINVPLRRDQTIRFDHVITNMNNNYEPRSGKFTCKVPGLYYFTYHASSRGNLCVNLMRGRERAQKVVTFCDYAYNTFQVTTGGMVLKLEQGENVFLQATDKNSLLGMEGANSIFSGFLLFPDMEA
UniProt P02745, sequence (P02747 29-245, chain 3 of 3, further chain): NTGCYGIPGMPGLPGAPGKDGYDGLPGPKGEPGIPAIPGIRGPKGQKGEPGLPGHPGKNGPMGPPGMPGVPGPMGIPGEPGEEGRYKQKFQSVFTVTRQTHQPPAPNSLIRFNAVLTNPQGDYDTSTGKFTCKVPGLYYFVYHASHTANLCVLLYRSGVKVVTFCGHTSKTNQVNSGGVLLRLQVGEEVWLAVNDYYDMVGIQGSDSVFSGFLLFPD

On to “von Willebrand factor (from UniProt P04275 764-2813) (natural protein)”, for which, in the assay with Complement C1q [1], the early phagocytosis (30 min) of pHrodo-dyed CC-C1q-vWF complexes by HMDMs, percent of CD11c+ cells in the pHrodo Red Ester+ gate; CC-C1q without vWF: 62, 40% (49.05–68.78%) was determined as 54.5% and the late phagocytosis (18 h) of CC-C1q-vWF complexes by HMDMs, percent of CD11c+ cells in the SSC^high gate; CC-C1q without vWF: 24.05% (22.55–34.60%) came out at 13.7%. Further, in the assay with Complement C1q [2], the median gMFI of vWF staining on CC-C1q worked out at 115000 gMFI. Further, in the assay with Complement C1q [3], the caspase-1 activity of HMDMs after 18 h with CC-C1q-vWF complexes, percent of CD11c+ cells in the FLICA+ gate; CC-C1q without vWF: 11.54% (7.29–28.38%) worked out at 9.37%.
